pKd: −log10 of the molar value.
Target: T1, EngHD (Engrailed homeodomain, DNA-binding domain) (Drosophila melanogaster) (UniProt P02836)
T1 sequence: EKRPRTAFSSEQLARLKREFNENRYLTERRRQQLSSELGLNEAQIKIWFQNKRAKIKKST
Assay: FCS
Conditions: ~1 nM Alexa 488-EngHD with unlabeled dsDNA titrated, ionic strength 50 mM (NaCl) unless stated, buffer, pH and temperature not in the material

Substance: full beta3-tubulin gene 7219 bp
- Kd (upper estimate, text: sub-nM): < 0.7 nM

Substance: CCATGGTTCTTAACCAAATTGAATTCTCGCCACCGATCGTGTTCGCCCGAAATAAATCTGGCCGAAAAGCCATCAATCTACAATCTAACTGTGCCTCGGTTTATACCTCCAACTGCCGTTCACCGAAAAGGCCGACAGTTTTCCGACAAAGACAAATTCTTAACCAAATTGAATTCTCGCCACCGATCGTGTTCGCCCGAAATAAATCTGGCCGAAAAGCCATCAATCTACAATCTAACTGTGCCTCGGTTTATACCTCCAACTGCCGTTCACCGAAAAGGCCGACAGTTTTCCGACTAATTGTTCTTAACCAAATTGAATTCTCGCCACCGATCGTGTTCGCCCGAAATAAATCTGGCCGAAAAGCCATCAATCTACAATCTAACTGTGCCTCGGTTTATACCTCCAACTGCCGTTCACCGAAAAGGCCGACAGTTTTCCGACTTCTTAACCAAATTGAATTCTCGCCACCGATCGTGTTCGCCCGAAATAAATCTGGCCGAAAAGCCATCAATCTACAATCTAACTGTGCCTCGGTTTATACCTCCAACTGCCGTTCACCGAAAAGGCCGACAGTTTTCCGACAAAGACAAAAAGCTT (double strand) [600 bp TAATTG]
- pKd: 8.66
